Assay results published in publication PMC4214742, “Crystal Structure of Human Protein N-Terminal Glutamine Amidohydrolase, an Initial Component of the N-End Rule Pathway” (PLoS ONE, 2014).

Molecular target: the molecule itself
Assay: crystal structure; SAD phasing, 1.5 Å; hanging-drop vapor diffusion at 291 K, 10 mg/ml Se-Met protein, well solution 1% ethylene glycol, 1.8 M ammonium sulfate, 100 mM MES pH 6.0; space group P212121; contact between symmetry-related molecules in the crystal

B1: human protein N-terminal glutamine amidohydrolase isoform 1 (hNtaq1) (enzyme)
chain: not shown
modifications: Se-Met labeled (selenomethionine in place of methionine)
notes: human N-terminal glutamine amidohydrolase isoform 1, encoded by the C8orf32 gene; 205 amino acids (Ser1 to Cys205), initial Met replaced by Ser after TEV cleavage; 202 residues modeled, Lys203, Asn204 and Cys205 disordered; Cloned by Gateway into pVP16 with N-terminal (His)6-MBP and a TEV site; also called human Ntaq1; not shown: His6, N-terminal, cleaved; MBP, N-terminal, cleaved
Does B1 bind?
Result: binds
